The record followed here is PMC6555819, “Comprehensive study of nuclear receptor DNA binding provides a revised framework for understanding receptor specificity”.

Where a chain is given by its changes, count along the chain named.

To fix the notation:
B1: NRC3_random_hg19_17_o1 (dsDNA)
DNA 1: GCCTGCAGTTTCACTTTGCATGTCTTCTTTCCTCAAGCGATTGACAGCGTAGAATGAAGG
DNA 2: CCTTCATTCTACGCTGTCAATCGCTTGAGGAAAGAAGACATGCAAAGTGAAACTGCAGGC
B2: NRC3_random_hg19_409_o1 (dsDNA)
DNA 1: GCGACTGCACTCCAGCCTGGGTGACACAACAAGACTGCGATTGACAGCGTAGAATGAAGG
DNA 2: CCTTCATTCTACGCTGTCAATCGCAGTCTTGTTGTGTCACCCAGGCTGGAGTGCAGTCGC
B3: NRC3_wobSeed17_DR0_T18C_o1 (dsDNA)
DNA 1: GCATATGTAGGTTAGGGCCATTCAGAAAGTAGGGAAGCGATTGACAGCGTAGAATGAAGG
DNA 2: CCTTCATTCTACGCTGTCAATCGCTTCCCTACTTTCTGAATGGCCCTAACCTACATATGC
B4: NRC3_wobSeed17_DR0_T18A_o1 (dsDNA)
DNA 1: B3 DNA 1 with C18A
DNA 2: B3 DNA 2 with G43T
B5: NRC3_random_hg19_3_o1 (dsDNA)
DNA 1: GCGCCAGAGGTGGAATGATATGATATGTCTCTGTGTGCGATTGACAGCGTAGAATGAAGG
DNA 2: CCTTCATTCTACGCTGTCAATCGCACACAGAGACATATCATATCATTCCACCTCTGGCGC
B6: NRC3_random_hg19_274_o1 (dsDNA)
DNA 1: GCTTCGTGCCCTTCCCTTGGACAGACTCCCTTGGCAGCGATTGACAGCGTAGAATGAAGG
DNA 2: CCTTCATTCTACGCTGTCAATCGCTGCCAAGGGAGTCTGTCCAAGGGAAGGGCACGAAGC
B7: NRC3_wobSeed114_DR4_G11A_o1 (dsDNA)
DNA 1: GCAATACAGGATCATCGTAGGCCAGAGTACGCACAGGCGATTGACAGCGTAGAATGAAGG
DNA 2: CCTTCATTCTACGCTGTCAATCGCCTGTGCGTACTCTGGCCTACGATGATCCTGTATTGC
B8: NRC3_random_hg19_337_o1 (dsDNA)
DNA 1: GCGTATTGAGCATCTATGATCTGCCAGTTAGGCTGCGCGATTGACAGCGTAGAATGAAGG
DNA 2: CCTTCATTCTACGCTGTCAATCGCGCAGCCTAACTGGCAGATCATAGATGCTCAATACGC
B9: NRC3_wobSeed58_DR2_C13G_o1 (dsDNA)
DNA 1: GCATCGAAAGGTGGTGAGGTGAGTATACAGAAAGGCGCGATTGACAGCGTAGAATGAAGG
DNA 2: CCTTCATTCTACGCTGTCAATCGCGCCTTTCTGTATACTCACCTCACCACCTTTCGATGC
B10: NRC3_wobSeed93_DR3_T12A_o1 (dsDNA)
DNA 1: GCAGTCAAAGTACATCTAGGTAACGTAAGATATGCTGCGATTGACAGCGTAGAATGAAGG
DNA 2: CCTTCATTCTACGCTGTCAATCGCAGCATATCTTACGTTACCTAGATGTACTTTGACTGC
B11: NRC3_wobSeed81_DR3_C22A_o1 (dsDNA)
DNA 1: GCATCTCTAGGTAACCAAGTTAAGTGAATGCCGAACGCGATTGACAGCGTAGAATGAAGG
DNA 2: CCTTCATTCTACGCTGTCAATCGCGTTCGGCATTCACTTAACTTGGTTACCTAGAGATGC
B12: NRC3_random_hg19_370_o1 (dsDNA)
DNA 1: GCTTTCTTTCTCTCTTGTCTGATTGCTCTGGCTAGAGCGATTGACAGCGTAGAATGAAGG
DNA 2: CCTTCATTCTACGCTGTCAATCGCTCTAGCCAGAGCAATCAGACAAGAGAGAAAGAAAGC
B13: NRC3_random_hg19_335_o1 (dsDNA)
DNA 1: GCATCTATGTGCATATGGAAGAAAGGAATGCAAGATGCGATTGACAGCGTAGAATGAAGG
DNA 2: CCTTCATTCTACGCTGTCAATCGCATCTTGCATTCCTTTCTTCCATATGCACATAGATGC
B14: NRC3_wobSeed18_DR0_C13A_o1 (dsDNA)
DNA 1: GCGATACAGGGTAAAGGCCAGAGTACGCGTATTGATGCGATTGACAGCGTAGAATGAAGG
DNA 2: CCTTCATTCTACGCTGTCAATCGCATCAATACGCGTACTCTGGCCTTTACCCTGTATCGC
B15: NRC3_wobSeed89_DR3_C26G_o1 (dsDNA)
DNA 1: GCCTATGTAGGTTAAGGGGGTCATTGAGTTTGAAAGGCGATTGACAGCGTAGAATGAAGG
DNA 2: CCTTCATTCTACGCTGTCAATCGCCTTTCAAACTCAATGACCCCCTTAACCTACATAGGC
B16: NRC3_wobSeed130_DR5_G14T_o1 (dsDNA)
DNA 1: GCCTCGAAAGGTCTTGCTCAGGTGAGTATACCAAACGCGATTGACAGCGTAGAATGAAGG
DNA 2: CCTTCATTCTACGCTGTCAATCGCGTTTGGTATACTCACCTGAGCAAGACCTTTCGAGGC
B17: NRC3_wobSeed142_DR5_G21T_o1 (dsDNA)
DNA 1: GCATACCAAGGTGATCGTGATGTCGTTGATACTAACGCGATTGACAGCGTAGAATGAAGG
DNA 2: CCTTCATTCTACGCTGTCAATCGCGTTAGTATCAACGACATCACGATCACCTTGGTATGC
B18: NRC3_random_hg19_125_o1 (dsDNA)
DNA 1: GCCAACCTACCAAACCATAACCAGTGTGTTTGCTCCGCGATTGACAGCGTAGAATGAAGG
DNA 2: CCTTCATTCTACGCTGTCAATCGCGGAGCAAACACACTGGTTATGGTTTGGTAGGTTGGC
B19: NRC3_random_hg19_247_o1 (dsDNA)
DNA 1: GCGCATGCCACAGGACTGGTAGGCAGCTCCATCTGCGCGATTGACAGCGTAGAATGAAGG
DNA 2: CCTTCATTCTACGCTGTCAATCGCGCAGATGGAGCTGCCTACCAGTCCTGTGGCATGCGC
B20: NRC3_random_hg19_161_o1 (dsDNA)
DNA 1: GCTCTGTGGCCTCGGCTCTCCAGGACTCGGAGGCTCGCGATTGACAGCGTAGAATGAAGG
DNA 2: CCTTCATTCTACGCTGTCAATCGCGAGCCTCCGAGTCCTGGAGAGCCGAGGCCACAGAGC
B21: NRC3_random_hg19_154_o1 (dsDNA)
DNA 1: GCAAGCATAGCTTTGAGAGCAGTAAAGTGGTTCATTGCGATTGACAGCGTAGAATGAAGG
DNA 2: CCTTCATTCTACGCTGTCAATCGCAATGAACCACTTTACTGCTCTCAAAGCTATGCTTGC
B22: NRC3_wobSeed74_DR3_G20C_o1 (dsDNA)
DNA 1: GCTCTAGTTGGTCACGGAGCTCACACACGACGGGTAGCGATTGACAGCGTAGAATGAAGG
DNA 2: CCTTCATTCTACGCTGTCAATCGCTACCCGTCGTGTGTGAGCTCCGTGACCAACTAGAGC
B23: NRC3_wobSeed98_DR4_G20T_o1 (dsDNA)
DNA 1: GCACTAGTTGGTCAGCTGATGTCACACACAATTCGGGCGATTGACAGCGTAGAATGAAGG
DNA 2: CCTTCATTCTACGCTGTCAATCGCCCGAATTGTGTGTGACATCAGCTGACCAACTAGTGC
B24: NRC3_random_hg19_30_o1 (dsDNA)
DNA 1: GCTGGAATGCAGTGGCACGATCACACATCACTGCAAGCGATTGACAGCGTAGAATGAAGG
DNA 2: CCTTCATTCTACGCTGTCAATCGCTTGCAGTGATGTGTGATCGTGCCACTGCATTCCAGC
B25: NRC3_wobSeed100_DR4_A24T_o1 (dsDNA)
DNA 1: GCCCTACTGGGCCACGAAAGGTCTTTGATTCAGTGAGCGATTGACAGCGTAGAATGAAGG
DNA 2: CCTTCATTCTACGCTGTCAATCGCTCACTGAATCAAAGACCTTTCGTGGCCCAGTAGGGC
B26: NRC3_random_hg19_461_o1 (dsDNA)
DNA 1: GCGCCTGACTCCAGCCCACAGGCTGGGAGTGGAAGTGCGATTGACAGCGTAGAATGAAGG
DNA 2: CCTTCATTCTACGCTGTCAATCGCACTTCCACTCCCAGCCTGTGGGCTGGAGTCAGGCGC
B27: NRC3_random_hg19_251_o1 (dsDNA)
DNA 1: GCCTGTGGAATCCAACATGCCAAATGCTTGCTTGAGGCGATTGACAGCGTAGAATGAAGG
DNA 2: CCTTCATTCTACGCTGTCAATCGCCTCAAGCAAGCATTTGGCATGTTGGATTCCACAGGC
B28: NRC3_wobSeed61_DR2_G10T_o1 (dsDNA)
DNA 1: GCCGTCCAATGTCAGCAGGTCAGTGAAAGCGACGTGGCGATTGACAGCGTAGAATGAAGG
DNA 2: CCTTCATTCTACGCTGTCAATCGCCACGTCGCTTTCACTGACCTGCTGACATTGGACGGC
B29: NRC3_random_hg19_191_o1 (dsDNA)
DNA 1: GCAGGAGAGACAGAGGAAGAGATGTGACATCAGAAGGCGATTGACAGCGTAGAATGAAGG
DNA 2: CCTTCATTCTACGCTGTCAATCGCCTTCTGATGTCACATCTCTTCCTCTGTCTCTCCTGC
B30: NRC3_wobSeed125_DR5_G10C_o1 (dsDNA)
DNA 1: GCCCTTACGCGTCACTGACAGGTTATAGCATTTGGAGCGATTGACAGCGTAGAATGAAGG
DNA 2: CCTTCATTCTACGCTGTCAATCGCTCCAAATGCTATAACCTGTCAGTGACGCGTAAGGGC
B31: NRC3_wobSeed125_DR5_G11C_o1 (dsDNA)
DNA 1: B30 DNA 1 with C10G, G11C
DNA 2: B30 DNA 2 with C50G, G51C

Chain of VDR:RXRa (P11473 whole entry, chain 1 of 2): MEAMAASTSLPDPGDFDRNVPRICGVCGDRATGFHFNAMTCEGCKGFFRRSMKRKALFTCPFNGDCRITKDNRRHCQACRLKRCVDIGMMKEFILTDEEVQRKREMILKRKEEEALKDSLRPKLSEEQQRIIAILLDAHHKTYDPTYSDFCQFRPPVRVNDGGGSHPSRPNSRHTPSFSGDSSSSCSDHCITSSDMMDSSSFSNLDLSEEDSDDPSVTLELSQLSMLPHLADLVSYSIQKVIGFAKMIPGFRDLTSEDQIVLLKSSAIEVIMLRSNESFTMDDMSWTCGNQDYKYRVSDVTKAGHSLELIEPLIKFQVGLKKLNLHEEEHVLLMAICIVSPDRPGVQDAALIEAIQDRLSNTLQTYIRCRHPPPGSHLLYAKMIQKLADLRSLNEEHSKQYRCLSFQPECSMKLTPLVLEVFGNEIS
Chain of VDR:RXRa (P19793 whole entry, chain 2 of 2): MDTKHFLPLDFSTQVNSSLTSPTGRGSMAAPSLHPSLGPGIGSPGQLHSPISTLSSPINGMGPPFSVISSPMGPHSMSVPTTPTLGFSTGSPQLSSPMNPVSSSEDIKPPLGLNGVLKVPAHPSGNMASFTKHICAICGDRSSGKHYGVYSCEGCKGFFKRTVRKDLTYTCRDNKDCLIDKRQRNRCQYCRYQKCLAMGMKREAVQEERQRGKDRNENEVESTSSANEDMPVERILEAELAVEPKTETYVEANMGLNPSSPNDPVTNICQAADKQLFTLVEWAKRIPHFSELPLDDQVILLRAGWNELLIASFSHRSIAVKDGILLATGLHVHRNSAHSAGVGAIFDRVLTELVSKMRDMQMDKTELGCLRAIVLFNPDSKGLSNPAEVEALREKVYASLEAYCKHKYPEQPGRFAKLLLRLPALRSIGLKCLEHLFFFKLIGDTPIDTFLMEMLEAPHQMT

The target of one series is VDR:RXRa (Homo sapiens, UniProt P11473;P19793 full;full). As to the kind of experiment: no ligand; PBM; 270 nM : 90 nM RXRa; PBS pH 7.4, 2% milk, 0.02% Triton X-100, 1 mM DTT, BSA, 0.4 mg/ml salmon testes DNA. The conditions noted are these: tags: His kept;His cleaved; copies: 1;1; label: surface-attached array probe. The method in brief:
(§1)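 On custom Agilent 4×180K arrays, double-stranded probes with 34-nt variable regions carried direct-repeat seeds, single-nucleotide variants, half-site ablations or random human genomic background. Ligand-free nuclear receptor dimers were applied for 1 h, and binding was read with antibodies against each partner (one per run). Binding z-scores come from regression-normalized fluorescence, with the random background probes as reference.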
Take B1: the binding signal is 0.19 PBM z-score against 500 random probes. Still for that read-out and setting: as for B2, the figure is -0.08 PBM z-score against 500 random probes; as for B3, 0.42 PBM z-score against 500 random probes; as for B4, 0.41 PBM z-score against 500 random probes. Same read-out and setting: with B5 the figure was -0.61 PBM z-score against 500 random probes; with B6, 0.25 PBM z-score against 500 random probes. Same read-out and setting: with B7 the figure was 0.25 PBM z-score against 500 random probes. In the case of B8, the binding signal was -0.54 PBM z-score against 500 random probes. Same read-out and setting: as for B9, the figure is 0.28 PBM z-score against 500 random probes; as for B10, 0.15 PBM z-score against 500 random probes. The same measure, in the same setting: as for B11, the figure is 0.37 PBM z-score against 500 random probes; as for B12, 0.44 PBM z-score against 500 random probes. In the case of B13, the binding signal was -0.62 PBM z-score against 500 random probes.

For the molecule B14, the binding signal is 0.02 PBM z-score against 500 random probes. Still for that read-out and setting: with B15 the figure was 8.2 PBM z-score against 500 random probes; with B16, 0.2 PBM z-score against 500 random probes.

As to B17, the binding signal was 0.3 PBM z-score against 500 random probes.

Take B18: the binding signal is 0.33 PBM z-score against 500 random probes.

For the molecule B19, the binding signal is -0.83 PBM z-score against 500 random probes. For B20, the binding signal is -0.38 PBM z-score against 500 random probes. The same measure, in the same setting: as for B21, the figure is -0.41 PBM z-score against 500 random probes; as for B22, 0.37 PBM z-score against 500 random probes; as for B23, 0.23 PBM z-score against 500 random probes. Same read-out and setting: as for B24, the figure is -0.46 PBM z-score against 500 random probes. For B25, the binding signal was -0.14 PBM z-score against 500 random probes. Still for that read-out and setting: with B26 the figure was -1.25 PBM z-score against 500 random probes; with B27, -0.19 PBM z-score against 500 random probes; with B28, 0.44 PBM z-score against 500 random probes. Same read-out and setting: as for B29, the figure is 0.21 PBM z-score against 500 random probes. B30: the binding signal is 0.17 PBM z-score against 500 random probes. Same read-out and setting: as for B31, the figure is 0.16 PBM z-score against 500 random probes.

In a further series the target is PPARa:RXRa (Homo sapiens, UniProt Q07869;P19793 full;full). The description is as above. Particulars: tags: GST kept;His cleaved; copies: 1;1; label: surface-attached array probe. The method in brief: as §1
Chain of PPARa:RXRa (Q07869 whole entry, chain 1 of 2): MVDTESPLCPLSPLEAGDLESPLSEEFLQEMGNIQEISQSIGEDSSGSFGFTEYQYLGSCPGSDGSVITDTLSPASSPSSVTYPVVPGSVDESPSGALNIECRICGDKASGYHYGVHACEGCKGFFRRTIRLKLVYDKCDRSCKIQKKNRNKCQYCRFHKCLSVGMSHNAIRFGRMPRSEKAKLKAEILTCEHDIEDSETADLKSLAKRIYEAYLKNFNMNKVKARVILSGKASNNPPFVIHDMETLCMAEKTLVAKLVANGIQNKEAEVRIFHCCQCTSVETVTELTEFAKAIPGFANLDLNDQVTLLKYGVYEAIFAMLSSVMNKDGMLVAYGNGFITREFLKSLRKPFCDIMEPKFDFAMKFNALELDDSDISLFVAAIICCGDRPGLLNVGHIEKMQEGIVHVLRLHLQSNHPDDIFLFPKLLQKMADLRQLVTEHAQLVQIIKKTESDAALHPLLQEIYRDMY
Chain of PPARa:RXRa (P19793 whole entry, chain 2 of 2): as the sequence (P19793 whole entry, chain 2 of 2) above
For the molecule B15, the binding signal was 6.55 PBM z-score against 500 random probes.
